Measurements: patent US20110262445A1 (CEPHALON AUSTRALIA, published 2011)

T1: IL-23R extracellular domain (human, UniProt Q5VWK5 24-355)
T1 construct: Methods print IL-23/Fc Chimera for the coated receptor; also called IL-23R-HIS; IL-23/Fc Chimera (so in the source); not shown: Fc (R&D Systems chimera) or HIS tag (in-house IL-23R-HIS)
T1 sequence: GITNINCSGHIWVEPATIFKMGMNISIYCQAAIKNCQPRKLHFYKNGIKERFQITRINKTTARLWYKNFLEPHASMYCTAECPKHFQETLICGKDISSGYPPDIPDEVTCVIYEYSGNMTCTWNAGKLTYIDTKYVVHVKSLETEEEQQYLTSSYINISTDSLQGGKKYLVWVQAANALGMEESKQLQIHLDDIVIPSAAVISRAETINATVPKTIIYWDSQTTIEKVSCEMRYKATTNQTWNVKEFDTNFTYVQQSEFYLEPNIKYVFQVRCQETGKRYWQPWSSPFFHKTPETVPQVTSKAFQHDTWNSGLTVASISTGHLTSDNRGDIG

T2: human IL-12 (human, UniProt P29460 23-328; P29459 23-219)
T2 construct: Recombinant (Peprotech); FLAG-tagged IL-12 in the flow cytometry assays, biotinylated in the IL-12Rβ2 assay; also called hIL-12
T2 sequence 1: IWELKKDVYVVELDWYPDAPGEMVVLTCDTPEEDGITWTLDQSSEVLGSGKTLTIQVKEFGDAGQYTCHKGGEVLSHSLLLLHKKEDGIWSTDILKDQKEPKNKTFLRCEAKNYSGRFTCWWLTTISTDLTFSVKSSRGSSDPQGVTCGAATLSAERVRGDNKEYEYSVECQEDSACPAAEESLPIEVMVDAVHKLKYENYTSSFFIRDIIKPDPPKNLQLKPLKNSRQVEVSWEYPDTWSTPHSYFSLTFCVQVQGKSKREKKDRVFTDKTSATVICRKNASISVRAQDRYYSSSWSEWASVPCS
T2 sequence 2: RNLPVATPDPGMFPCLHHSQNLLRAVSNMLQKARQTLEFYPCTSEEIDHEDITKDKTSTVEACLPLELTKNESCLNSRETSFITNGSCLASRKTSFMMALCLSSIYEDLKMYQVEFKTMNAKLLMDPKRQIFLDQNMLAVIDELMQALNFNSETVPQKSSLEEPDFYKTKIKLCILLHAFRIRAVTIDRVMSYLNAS

T3: human IL-23 (human, UniProt P29460 23-328; Q9NPF7 20-189)
T3 construct: Recombinant (Ebioscience); HIS-tagged in flow cytometry, biotinylated in some assays; also called hIL-23; rhIL-23
T3 sequence 1: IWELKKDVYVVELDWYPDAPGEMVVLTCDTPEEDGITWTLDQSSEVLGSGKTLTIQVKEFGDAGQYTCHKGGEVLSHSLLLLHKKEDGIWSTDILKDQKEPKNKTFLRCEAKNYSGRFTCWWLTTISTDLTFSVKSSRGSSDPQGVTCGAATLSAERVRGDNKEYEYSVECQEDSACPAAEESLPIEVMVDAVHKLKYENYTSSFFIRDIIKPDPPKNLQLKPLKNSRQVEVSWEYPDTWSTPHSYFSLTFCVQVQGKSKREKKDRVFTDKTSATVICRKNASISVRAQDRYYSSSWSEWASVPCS
T3 sequence 2: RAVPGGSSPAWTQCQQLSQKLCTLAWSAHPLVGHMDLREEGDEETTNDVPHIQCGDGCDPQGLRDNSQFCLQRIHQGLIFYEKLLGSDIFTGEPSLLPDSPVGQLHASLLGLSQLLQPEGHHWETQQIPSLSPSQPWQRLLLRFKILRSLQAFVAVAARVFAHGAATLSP


Columns and labels:
[1] = biological target: T1, IL-23R extracellular domain; assay: ELISA, IL-23R coated
Experimental: (§1) The plate was then washed three times with wash buffer. The wells were then blocked by adding 200 μl of blocking buffer to each well and incubating the plate at 25° C. for 1 hour. The supernatant was diluted in antibody diluent sufficient to generate a titration curve and 100 µl was added to wells then incubated for 1 hour at 25° C. The plate was then washed as previously described and 100 μl of Monoclonal Anti-FLAG® M2-HRP (Sigma-Aldrich®) at 1:1000 in antibody diluent was used to detect bound cytokine. After incubation at 25° C. for 1 hour the plate was washed again as previously described. 100 μl TMB substrate solution (Sigma-Aldrich®) was added to each well and the colour allowed to develop for 5 minutes. 100 μl of 1M HCl was added to terminate the colour development reaction and absorbance was determined at 450 nm (ref. 620 nm).

IL-12Rβ1/Fc Chimera = biological target: T4, IL-12Rβ1/Fc Chimera (human, UniProt P42701 25-545); assay: ELISA, IL-12Rβ1 coated
T4 construct: not shown: Fc of the bought R&D Systems chimera
Experimental: as §1

human IL-12 [2] = biological target: T2, human IL-12; assay: neutralization ELISA: IL-12 preincubated with antibody, its binding to coated IL-12Rβ2/Fc is blocked
Outline: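 IL-12Rβ2/Fc chimera at 5 ug/ml in carbonate buffer was coated overnight at 4° C and blocked with 1% BSA for 1 hour at 25° C. Biotinylated IL-12 was preincubated with titrated antibody for 2 hours, then added to the wells for 2 hours at 25° C. Detection used Streptavidin HRP 1:5000 and TMB, stopped with 1M HCl, with absorbance read at 450 nm (reference 620 nm). IC50 was read off the curve.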

human IL-23 [3] = biological target: T3, human IL-23; assay: SPR, IgG on Protein A
Experimental: (§2) Using SPR technology the kₐ and kd and the KD of various humanized antibodies was determined.
(§3) Using a SPR 3000, Protein A was immobilized onto FC1 and FC2 (or alternatively FC3 and FC4) of a CM5 research grade sensor chip using amine coupling, giving approximately […] RU. FC1 was used a blank throughout the experiments. The experiments were run in HBS-P buffer (SPR). At a flow rate of 20 μl/min, 20 μl of 5 μg/mL of antibody was passed over FC2. IL-12, IL-23 or IL-12p40 (Peprotech) were passed over the surface of FC1 and FC2 at concentrations ranging from 66 nM to 2 nM. Regeneration of the surface was performed using 10 mM Glycine, pH 1.0. The sensorgram data from FC2 was subtracted from FC1 and a buffer only control. The curves were fitted using a 1:1 Langmuir equation to generate the kd, ka and KD values. All curves were fitted with a χ² of less then 2.0 where possible.

human IL-12 [4] = biological target: T2, human IL-12; assay: SPR, IgG on Protein A
Experimental: as §2, §3

human IL-23 [5] = biological target: T3, human IL-23; assay: neutralization ELISA: IL-23 preincubated with antibody, its binding to coated IL-23R is blocked
Outline: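 Wells were coated overnight at 4° C with His-tagged IL-23R made in HEK-293E cells in carbonate buffer, then blocked with 1% BSA. Titrated antibody was preincubated for 2 hours with biotinylated IL-23 at 50 ng/ml, and the mix was added to the wells for 2 hours at 25° C. Bound IL-23 was detected with Streptavidin HRP at 1:5000 and TMB for 15 minutes, stopped with 1M HCl and read at 450 nm against a 620 nm reference. The IC50 came from the resulting curve.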

human IL-23 [6] = biological target: T3, human IL-23; assay: sandwich ELISA: IL-23 held by coated PMA202, Antibody 136 titrated, anti-human Fc-HRP
human IL-12 [7] = biological target: T2, human IL-12; assay: sandwich ELISA: IL-12 held by coated PMA202, Antibody 136 titrated, anti-human Fc-HRP
Outline: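 Capture antibody at 1 μg/mL was coated overnight at 4° C and blocked with 1% BSA. IL-12 at 0.5 μg/ml was bound for 1 hour at 25° C, followed by half-log serial dilutions of test antibody for 1 hour. Bound antibody was detected with goat anti-human IgG Fc-HRP (1:2000) and TMB, stopped with 1 M HCl, and optical density read at 450 nm (reference 620 nm). EC50 was read off the curve.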

| binding result [1] | binding result (IL-12Rβ1/Fc Chimera) | IC50 (read off the curve) (human IL-12 [2]) | Kd (human IL-23 [3]) | koff (human IL-23 [3]) | kon (human IL-23 [3]) | Kd (human IL-12 [4]) | koff (human IL-12 [4]) | kon (human IL-12 [4]) | IC50 (read off the curve) (human IL-23 [5]) | EC50 (read off the curve) (human IL-23 [6]) | EC50 (read off the curve) (human IL-12 [7]) | Binder |
| --- | --- | --- | --- | --- | --- | --- | --- | --- | --- | --- | --- | --- |
| binds | binds | – | – | – | – | – | – | – | – | – | – | IL-23 mutant D265A (ligand) IWELKKDVYVVELDWYPDAPGEMVVLTCDTPEEDGITWTLDQSSEVLGSGKTLTIQVKEFGDAGQYTCHKGGEVLSHSLLLLHKKEDGIWSTDILKDQKEPKNKTFLRCEAKNYSGRFTCWWLTTISTDLTFSVKSSRGSSDPQGVTCGAATLSAERVRGDNKEYEYSVECQEDSACPAAEESLPIEVMVDAVHKLKYENYTSSFFIRDIIKPDPPKNLQLKPLKNSRQVEVSWEYPDTWSTPHSYFSLTFCVQVQGKSKREKKARVFTDKTSATVICRKNASISVRAQDRYYSSSWSEWASVPCSGSGSSRGGSGSGGSGGGGSKLRAVPGGSSPAWTQCQQLSQKLCTLAWSAHPLVGHMDLREEGDEETTNDVPHIQCGDGCDPQGLRDNSQFCLQRIHQGLIFYEKLLGSDIFTGEPSLLPDSPVGQLHASLLGLSQLLQPEGHHWETQQIPSLSPSQPWQRLLLRFKILRSLQAFVAVAARVFAHGAATLSP |
| binds | binds | – | – | – | – | – | – | – | – | – | – | IL-23 mutant R266A (ligand) IWELKKDVYVVELDWYPDAPGEMVVLTCDTPEEDGITWTLDQSSEVLGSGKTLTIQVKEFGDAGQYTCHKGGEVLSHSLLLLHKKEDGIWSTDILKDQKEPKNKTFLRCEAKNYSGRFTCWWLTTISTDLTFSVKSSRGSSDPQGVTCGAATLSAERVRGDNKEYEYSVECQEDSACPAAEESLPIEVMVDAVHKLKYENYTSSFFIRDIIKPDPPKNLQLKPLKNSRQVEVSWEYPDTWSTPHSYFSLTFCVQVQGKSKREKKDAVFTDKTSATVICRKNASISVRAQDRYYSSSWSEWASVPCSGSGSSRGGSGSGGSGGGGSKLRAVPGGSSPAWTQCQQLSQKLCTLAWSAHPLVGHMDLREEGDEETTNDVPHIQCGDGCDPQGLRDNSQFCLQRIHQGLIFYEKLLGSDIFTGEPSLLPDSPVGQLHASLLGLSQLLQPEGHHWETQQIPSLSPSQPWQRLLLRFKILRSLQAFVAVAARVFAHGAATLSP |
| – | – | ~0.4 µg/mL | 0.105 nM | 0.000795 s⁻¹ | 7.55e+06 M⁻¹ s⁻¹ | 0.197 nM | 0.000997 s⁻¹ | 5.05e+06 M⁻¹ s⁻¹ | ~1 µg/mL | ~0.06 µg/mL | ~0.1 µg/mL | Antibody 136 (antibody, human IgG1, kappa, V domains shown, Humanized PMA204 (1RZ7 framework)) VH: EVQLVQSGAEVKKPGATVKISCKASGYTFSDYYLHWVRQAPEKGLEWMGWIDPENGDTEYAPKFQGRVTITADTSTDTGYLELSSLRSEDTAVYYCAANKELRYFDVWGQGTLVTVSS VL: DIQMTQSPSSVSASVGDRVTITCRASQSISINLHWYQQKPGKAPKLLIYFASQSISGVPSRFSGSGSGTDFSLTINSLQTEDFATYYCQQSNSFPLTFGGGTKVEIKR |
